Experimental findings from patent US20230063116A1 (Regeneron, published 2023) are described below.

T1: VEGF121 (hVEGF121, aa 207-327) (human, UniProt P15692 207-327)
T1 chain: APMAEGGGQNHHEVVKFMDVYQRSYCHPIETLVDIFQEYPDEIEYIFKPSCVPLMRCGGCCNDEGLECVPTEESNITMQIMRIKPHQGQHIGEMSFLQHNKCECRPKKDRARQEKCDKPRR

T2: VEGF110 (hVEGF110, aa 207-318) (human, UniProt P15692 207-318)
T2 sequence (looked up): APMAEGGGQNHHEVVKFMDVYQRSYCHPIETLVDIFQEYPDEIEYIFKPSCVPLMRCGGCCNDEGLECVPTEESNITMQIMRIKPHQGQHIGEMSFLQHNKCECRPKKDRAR

B1: REGN6824 (hVEGF minitrap-G4Sx3-hVEGF minitrap-mmH) (receptor)
chain: SDTGRPFVEMYSEIPEIIHMTEGRELVIPCRVTSPNITVTLKKFPLDTLIPDGKRIIWDSRKGFIISNATYKEIGLLTCEATVNGHLYKTNYLTHRQTNTIIDVVLSPSHGIELSVGEKLVLNCTARTELNVGIDFNWEYPSSKHQHKKLVNRDLKTQSGSEMKKFLSTLTIDGVTRSDQGLYTCAASSGLMTKKNSTFVRVHEKGGGGSGGGGSGGGGSSDTGRPFVEMYSEIPEIIHMTEGRELVIPCRVTSPNITVTLKKFPLDTLIPDGKRIIWDSRKGFIISNATYKEIGLLTCEATVNGHLYKTNYLTHRQTNTIIDVVLSPSHGIELSVGEKLVLNCTARTELNVGIDFNWEYPSSKHQHKKLVNRDLKTQSGSEMKKFLSTLTIDGVTRSDQGLYTCAASSGLMTKKNSTFVRVHEKEQKLISEEDLGGEQKLISEEDLHHHHHH
notes: Monomeric single chain; also called REGN6824 (G4Sx3 linker); single chain mini-trap with (G4S)3 linker and C-terminal mmH tag
B2: REGN7991 (hVEGF minitrap-G4Sx9-hVEGF minitrap) (receptor)
chain: SDTGRPFVEMYSEIPEIIHMTEGRELVIPCRVTSPNITVTLKKFPLDTLIPDGKRIIWDSRKGFIISNATYKEIGLLTCEATVNGHLYKTNYLTHRQTNTIIDVVLSPSHGIELSVGEKLVLNCTARTELNVGIDFNWEYPSSKHQHKKLVNRDLKTQSGSEMKKFLSTLTIDGVTRSDQGLYTCAASSGLMTKKNSTFVRVHEKGGGGSGGGGSGGGGSGGGGSGGGGSGGGGSGGGGSGGGGSGGGGSSDTGRPFVEMYSEIPEIIHMTEGRELVIPCRVTSPNITVTLKKFPLDTLIPDGKRIIWDSRKGFIISNATYKEIGLLTCEATVNGHLYKTNYLTHRQTNTIIDVVLSPSHGIELSVGEKLVLNCTARTELNVGIDFNWEYPSSKHQHKKLVNRDLKTQSGSEMKKFLSTLTIDGVTRSDQGLYTCAASSGLMTKKNSTFVRVHEK
notes: Monomeric single chain, no tag; also called REGN7991 (G4Sx9 linker); single chain mini-trap with (G4S)9, no tag
B3: REGN7992 (hVEGF minitrap-G4Sx12-hVEGF minitrap) (receptor)
chain: SDTGRPFVEMYSEIPEIIHMTEGRELVIPCRVTSPNITVTLKKFPLDTLIPDGKRIIWDSRKGFIISNATYKEIGLLTCEATVNGHLYKTNYLTHRQTNTIIDVVLSPSHGIELSVGEKLVLNCTARTELNVGIDFNWEYPSSKHQHKKLVNRDLKTQSGSEMKKFLSTLTIDGVTRSDQGLYTCAASSGLMTKKNSTFVRVHEKGGGGSGGGGSGGGGSGGGGSGGGGSGGGGSGGGGSGGGGSGGGGSGGGGSGGGGSGGGGSSDTGRPFVEMYSEIPEIIHMTEGRELVIPCRVTSPNITVTLKKFPLDTLIPDGKRIIWDSRKGFIISNATYKEIGLLTCEATVNGHLYKTNYLTHRQTNTIIDVVLSPSHGIELSVGEKLVLNCTARTELNVGIDFNWEYPSSKHQHKKLVNRDLKTQSGSEMKKFLSTLTIDGVTRSDQGLYTCAASSGLMTKKNSTFVRVHEK
notes: Monomeric single chain, no tag; also called REGN7992 (G4Sx12 linker); single chain mini-trap with (G4S)12, no tag
B4: REGN7851 (VEGF mini-trap-hFc …) (receptor)
chain: SDTGRPFVEMYSEIPEIIHMTEGRELVIPCRVTSPNITVTLKKFPLDTLIPDGKRIIWDSRKGFIISNATYKEIGLLTCEATVNGHLYKTNYLTHRQTNTIIDVVLSPSHGIELSVGEKLVLNCTARTELNVGIDFNWEYPSSKHQHKKLVNRDLKTQSGSEMKKFLSTLTIDGVTRSDQGLYTCAASSGLMTKKNSTFVRVHEKDKTHTCPPCPPCPPC
notes: Recombinant homodimer; also called REGN7851 (CPPCPPCPPC)
B5: REGN7850 (VEGF mini-trap-hFc …) (receptor)
chain: SDTGRPFVEMYSEIPEIIHMTEGRELVIPCRVTSPNITVTLKKFPLDTLIPDGKRIIWDSRKGFIISNATYKEIGLLTCEATVNGHLYKTNYLTHRQTNTIIDVVLSPSHGIELSVGEKLVLNCTARTELNVGIDFNWEYPSSKHQHKKLVNRDLKTQSGSEMKKFLSTLTIDGVTRSDQGLYTCAASSGLMTKKNSTFVRVHEKDKTHTCPPCPPC
notes: Recombinant homodimer; also called REGN7850 (CPPCPPC)
B6: REGN7483^F (homodimer mini-trap, FabRICATOR cleaved from aflibercept) (receptor)
chain: SDTGRPFVEMYSEIPEIIHMTEGRELVIPCRVTSPNITVTLKKFPLDTLIPDGKRIIWDSRKGFIISNATYKEIGLLTCEATVNGHLYKTNYLTHRQTNTIIDVVLSPSHGIELSVGEKLVLNCTARTELNVGIDFNWEYPSSKHQHKKLVNRDLKTQSGSEMKKFLSTLTIDGVTRSDQGLYTCAASSGLMTKKNSTFVRVHEKDKTHTCPPCPAPELLG
modifications: N-linked glycans at N36, N68, N123, N196 (Table C)
notes: Disulfide-linked homodimer made by IdeS cleavage of aflibercept; also called dimer mini-trap from FabRICATOR (IdeS) cleavage of REGN3
B7: REGN7483^R (homodimer mini-trap, recombinant) (receptor)
chain: B6 chain
modifications: N-linked glycans at N36, N68, N123, N196 (Table C)
notes: also called Recombinant dimer mini-trap

Some results are limits rather than exact numbers.

For the first experiment, the target named is T1, VEGF121 (hVEGF121, aa 207-327). Put plainly: cell-based or functional assay.
As for B1, the “IC50 (M), inhibition of VEGFR1 signaling (luciferase), 20 pM VEGF121” value (shortened to “IC50 (M), inhibition … 20 pM VEGF121”) was 2.44e-10 M.

The next experiment deals with T2, VEGF110 (hVEGF110, aa 207-318). Put plainly: cell-based or functional assay.
B1: the “IC50 (M), inhibition of VEGFR1 signaling (luciferase), 20 pM VEGF110” value (“IC50 (M), inhibition … 20 pM VEGF110” below) came to 2.22e-10 M.

Another experiment has as its target T1, VEGF121 (hVEGF121, aa 207-327). The experiment in a line: cell-based or functional assay. This is another data set of the same source.
As for B2, the “IC50 (M), inhibition … 20 pM VEGF121” value worked out at 7.71e-11 M.
In the case of B3, the “IC50 (M), inhibition … 20 pM VEGF121” value came out at 2.37e-11 M.

In a further experiment the target is T2, VEGF110 (hVEGF110, aa 207-318). The experiment in a line: cell-based or functional assay. This is another data set of the same source.
Consider B2, for which the “IC50 (M), inhibition … 20 pM VEGF110” value was found to be 7.88e-11 M.
Still for that read-out and setting: the result for B3 reads 3.42e-11 M.

In the next experiment the target is T1, VEGF121 (hVEGF121, aa 207-327). The experiment in a line: cell-based or functional assay. The source holds these as a separate data set.
As to B4, the “IC50 (M), inhibition … 20 pM VEGF121” value was 1.83e-11 M.
With B5, the “IC50 (M), inhibition … 20 pM VEGF121” value is 1.66e-11 M.

A further experiment deals with T3, human VEGF165 (REGN110) (human, UniProt P15692 207-395). Put plainly: cell-based or functional assay.
Target sequence in this assay (P15692 other isoform, or with tags, fused parts or gaps): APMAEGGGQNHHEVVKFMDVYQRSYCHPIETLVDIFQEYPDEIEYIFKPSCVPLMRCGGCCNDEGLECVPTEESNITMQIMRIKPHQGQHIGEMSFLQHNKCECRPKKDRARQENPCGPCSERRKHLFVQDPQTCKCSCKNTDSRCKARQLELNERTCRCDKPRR
In the case of B4, the “IC50 (M), inhibition of VEGFR1 signaling (luciferase), 20 pM VEGF165” value (“IC50 (M), inhibition … 20 pM VEGF165” for short) came to 2.68e-11 M.
Regarding B5, the “IC50 (M), inhibition … 20 pM VEGF165” value was 2.99e-11 M.
As to B6, the “IC50 (M), inhibition … 20 pM VEGF165” value was found to be 1.23e-11 M.
Consider B7, for which the “IC50 (M), inhibition … 20 pM VEGF165” value was found to be 1.92e-11 M.

In the next experiment the target is T2, VEGF110 (hVEGF110, aa 207-318). The experiment in a line: cell-based or functional assay. This is another data set of the same source.
For the molecule B4, the “IC50 (M), inhibition … 20 pM VEGF110” value is 1.45e-11 M.
Consider B5, for which the “IC50 (M), inhibition … 20 pM VEGF110” value stood at 1.22e-11 M.
On to B6, for which the “IC50 (M), inhibition … 20 pM VEGF110” value worked out at 1.04e-11 M.
For B7, the “IC50 (M), inhibition … 20 pM VEGF110” value came to 1.3e-11 M.

A further experiment concerns the target T3, human VEGF165 (REGN110). Put plainly: SPR, Biacore, 25 C; trap captured on anti-VEGFR1 mAb surface, hVEGF165 injected. Here is the method:
(§1) Experimental Procedure. Equilibrium dissociation constants (KD values) for human VEGF₁₆₅ binding to various purified VEGF mini-trap constructs were determined using a real-time surface plasmon resonance biosensor using a Biacore 3000 instrument. All binding studies were performed in 10 mM HEPES, 150 mM NaCl, 3 mM EDTA, and 0.05% v/v Surfactant Tween-20, pH 7.4 (HBS-ET) running buffer at 25° C. The Biacore sensor surface was first derivatized by amine coupling with a monoclonal mouse anti-VEGFR1 antibody to capture VEGF mini-trap constructs. Binding studies were performed on the human VEGF reagent, human VEGF₁₆₅ (human VEGF₁₆₅; SEQ ID NO: 31). Different concentrations of VEGF₁₆₅ reagent, prepared in HBS-ET running buffer (2 nM — 62.5 pM; 2-fold serial dilution for human VEGF₁₆₅), were injected over an anti-VEGFR1-captured VEGF mini-trap construct surface for 1.8 minutes at a flow rate of 90 μL/minute, while the dissociation of VEGF mini-trap constructs bound VEGF₁₆₅ reagent was monitored for 60 minutes in HBS-ET running buffer. Kinetic association (kₐ) and dissociation (kd) rate constants were determined by fitting the real-time sensorgrams to a 1:1 binding model using Scrubber 2.0c curve fitting software. Binding dissociation equilibrium constants (KD) and dissociative half-lives (t½) were calculated from the kinetic rate constants as: […]
On the technique in general: In SPR one partner is held on a chip, and binding of the other changes the refractive index at the surface.
Turning to B4, the “2nM hVEGF165 Bound” value amounted to 51 RU.
For B2, the “2nM hVEGF165 Bound” value was 40 RU.
Still for that read-out and setting: the result for B1 reads 33 RU.
Turning to B5, the “2nM hVEGF165 Bound” value came out at 56 RU.
In the case of B3, the “2nM hVEGF165 Bound” value worked out at 22 RU.

The target in a further experiment is T3, human VEGF165 (REGN110). The experiment in a line: SPR, Biacore 3000, 25 C; trap captured on anti-VEGFR1 mAb surface, hVEGF165 injected.
For the molecule B1, the “100 nM hVEGF165 Bound” value turned out to be 33 RU.

Another experiment addresses T3, human VEGF165 (REGN110). The experiment in a line: SPR, Biacore, 25 C; trap captured on anti-VEGFR1 mAb surface, hVEGF165 injected; 1:1 fit. Here is the method: as §1
By Kd is commonly meant the concentration at which binding is half-saturated. A lower Kd goes with higher affinity. As usually defined, the koff is the rate constant with which the complex falls apart. A lower koff goes with a long-lived complex. As a reminder, the kon is the second-order rate constant of association. High values mean fast association, low ones slow association. Consider B4, for which the Kd is 1.81 pM, the koff is at least 1e-05 s⁻¹, the kon is 5.51e+06 M⁻¹ s⁻¹ and the “t1/2 (dissociative half-life)” value is at least 19.2 h.
B2: the Kd was 13.8 pM, the koff was 9.79e-05 s⁻¹, the kon is 7.1e+06 M⁻¹ s⁻¹ and the “t1/2 (dissociative half-life)” value was found to be 1.97 h.
Regarding B1, the affinity, expressed as Kd, was 86.1 pM; the dissociation rate constant (koff) came out at 0.000554 s⁻¹; the kon was found to be 6.44e+06 M⁻¹ s⁻¹; the “t1/2 (dissociative half-life)” value is 0.348 h.
On to B5, for which the dissociation constant Kd turned out to be 1.55 pM, the koff was at least 1e-05 s⁻¹, the kon is 6.46e+06 M⁻¹ s⁻¹ and the “t1/2 (dissociative half-life)” value is at least 19.2 h.
With B3, the Kd amounted to 15.3 pM, the off-rate constant (koff) came out at 9.7e-05 s⁻¹, the kon came to 6.3e+06 M⁻¹ s⁻¹ and the “t1/2 (dissociative half-life)” value amounted to 1.98 h.
On the same counts, the results for B6 are 1.32 pM, at least 1e-05 s⁻¹, 7.59e+06 M⁻¹ s⁻¹ and at least 19.2 h.
B7: binding was characterised by a dissociation constant (Kd) of 1.59 pM, the koff is at least 1e-05 s⁻¹, the kon was determined as 6.3e+06 M⁻¹ s⁻¹ and the “t1/2 (dissociative half-life)” value was at least 19.2 h.

The next experiment addresses T3, human VEGF165 (REGN110). Put plainly: SPR, Biacore 3000, 25 C; trap captured on anti-VEGFR1 mAb surface, hVEGF165 injected; 1:1 fit.
As to B1, binding was put at a Kd of 86.1 pM, the koff came to 0.000554 s⁻¹, the on-rate constant (kon) is 6.44e+06 M⁻¹ s⁻¹ and the “t½ (dissociative half-life)” value was 0.348 h.
Consider B6, for which the dissociation constant Kd is at most 1.32 pM, the koff was at most 1e-05 s⁻¹, the on-rate constant (kon) is 7.58e+06 M⁻¹ s⁻¹ and the “t½ (dissociative half-life)” value was at least 19.2 h.
Turning to B7, the Kd is at most 1.58 pM, the koff was at most 1e-05 s⁻¹, the kon worked out at 6.3e+06 M⁻¹ s⁻¹ and the “t½ (dissociative half-life)” value was at least 19.2 h.
